According to patent publication US20190077867A1 (REYOUNG SUZHOU BIOLOGY SCIENCE AND TECHNOLOGY, published 2019):
Each block holds one binder with its values, some of them ahead of it.

Legend:
[1] = molecular target: T1, hPD-L1 on hPD-L1-Fc over-expressed cells (human, UniProt Q9NZQ7 19-290); experiment: cell inhibition assay: cells printed as PD1-27 (PD1 over-expressed CHO-K1), antibody, PD1-Fc-Biotin as competitor, Europium-labeled streptavidin
T1 construct: whole, on cells; also called over-expressed hPD-L1-Fc cells
T1 sequence (Q9NZQ7 19-290): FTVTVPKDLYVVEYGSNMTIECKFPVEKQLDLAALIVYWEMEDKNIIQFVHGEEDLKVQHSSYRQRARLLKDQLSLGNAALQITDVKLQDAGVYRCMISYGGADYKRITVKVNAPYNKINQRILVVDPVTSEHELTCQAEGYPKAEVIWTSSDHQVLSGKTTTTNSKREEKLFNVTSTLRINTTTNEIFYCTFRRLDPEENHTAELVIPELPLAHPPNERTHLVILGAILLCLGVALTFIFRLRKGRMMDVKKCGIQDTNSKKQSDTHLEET
Excerpt: D. Cell Inhibitory Activity [0090] Lay PD1-27 (PD1 over-expressed CHO-K1 stable transfected cells) on the cell plate for culture inspection one day ahead of schedule. After closure on the next day, add gradient-diluted antibody, then PD1-Fc-Biotin, then Europium-labeled streptavidin, and obtain the readings.

hPD-L1-Fc [2] = molecular target: T2, hPD-L1-Fc (human, UniProt Q9NZQ7 19-238, limits assumed); experiment: competition ELISA: antibody pre-incubated with hPD-L1-Fc-Biotin, added to a plate printed as coated with hPD-L1-Fc, SA-HRP
T2 construct: Plate-coated antigen in the Embodiment 1 ELISAs
T2 sequence (Q9NZQ7 19-238 limits assumed): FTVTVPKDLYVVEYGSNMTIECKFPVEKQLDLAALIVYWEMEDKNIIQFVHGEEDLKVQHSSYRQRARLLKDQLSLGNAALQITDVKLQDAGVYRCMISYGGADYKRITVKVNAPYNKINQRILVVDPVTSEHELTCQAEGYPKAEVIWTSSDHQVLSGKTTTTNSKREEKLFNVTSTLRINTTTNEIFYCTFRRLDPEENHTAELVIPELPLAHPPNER
Description: B. ELISA Inhibitory Activity [0086] Incubate the gradient diluted antibody and a certain concentration of hPD-L1-Fc-Biotin, then add the mixture to the plate enveloped with hPD-L1-Fc. Add SA-HRP to the plate after incubating and washing. Then perform coloration. Draw up the reaction curve by fitting of readings (see FIG. 2 for results) to calculate the IC50 value.

[3] = molecular target: T1, hPD-L1 on hPD-L1-Fc over-expressed cells; experiment: cell binding on hPD-L1-Fc over-expressed cells, anti-mouse-EU fluorescence
Excerpt: C. Cell Binding Activity [0088] Lay hPD-L1-Fc over-expressed cells on the cell plate for culture inspection one day ahead of schedule. After closure on the next day, add gradient-diluted antibody, then anti-mouse-EU. And then obtain the readings.

hPD-L1-Fc [4] = molecular target: T2, hPD-L1-Fc; experiment: ELISA on coated hPD-L1-Fc, goat anti-mouse-HRP
Description: A. ELISA Binding Activity [0084] Envelop hPD-L1-Fc on the plate, add gradient diluted antibody, incubate and wash it, and then add goat anti-mouse-HRP, perform coloration, and draw up the reaction curve by fitting of readings (the results as shown in FIG. 1) to calculate the EC50 value.

B7-1 = molecular target: T3, B7-1 (Homo sapiens (Human), UniProt P33681 35-242); experiment: ELISA on coated protein, goat anti-human FAB-HRP, OD450
T3 construct: probably human
T3 sequence: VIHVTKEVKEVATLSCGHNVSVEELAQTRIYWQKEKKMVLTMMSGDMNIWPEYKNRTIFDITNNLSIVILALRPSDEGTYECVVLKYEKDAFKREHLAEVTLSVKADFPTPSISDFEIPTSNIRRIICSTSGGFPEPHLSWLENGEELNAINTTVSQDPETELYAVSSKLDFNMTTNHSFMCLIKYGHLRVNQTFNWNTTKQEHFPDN
Description: The binding of B7 family members B7-1, B7-2 to PD-L2 protein, and the binding of mouse, M. fascicularis and human PD-L1 protein to humanized antibody anti-PD-L1-1 are tested. Different proteins are stored at […] in enveloping buffer at 4° C. overnight. Remove the solution in wells the next day and wash with PBST for twice. Then add 1% BSA, seal at 37° C. for 1 hour, then wash with PBST for twice. Add 0.5 μg/mL antibody samples, incubate for 1 hour, and wash with PBST for three times. Dilute with goat anti-human FAB-HRP at ratio of 1:10000, incubate for 1 hour at 37 C, and wash with PBST for three times. Add TMB for 15 min coloration, stop the reaction with 0.5M H₂SO₄ and read out the absorbance at 450 nm.

[5] = molecular target: T4, recombinant human PD-L1 fusion protein (human, UniProt Q9NZQ7 19-238); experiment: ELISA, recombinant human PD-L1 fusion protein coated, antibody after 7 days in monkey serum at 37 °C, goat anti-human FAB-HRP, OD450
T4 construct: This may be the same reagent as hPD-L1-Fc
T4 sequence (Q9NZQ7 19-238): as the sequence (Q9NZQ7 19-238 limits assumed) above
Description: (§1) The recombinant human PD-L1 fusion protein is stored at the concentration of 0.5 μg/mL at 4° C. overnight in enveloping buffer. Remove the solution in wells the next day and wash with PBST for twice. Then add 1% BSA, seal at 37° C. for 1 hour, then wash with PBST for twice. The stable antibody samples are diluted three folds starting from 1 μg/mL for 8 concentration gradients, incubated at 37° C. for 1 hour, and washed with PBST for three times. Dilute with goat anti-human FAB-HRP at ratio of 1:10000, incubate for 1 hour at 37 C, and wash with PBST for three times. Add TMB for 15 min coloration, stop the reaction with 0.5M H₂SO₄ and read out the absorbance at 450 nm.

[6] = molecular target: T4, recombinant human PD-L1 fusion protein; experiment: ELISA, recombinant human PD-L1 fusion protein coated, antibody after 4 days in monkey serum at 37 °C, goat anti-human FAB-HRP, OD450
Description: as §1

[7] = molecular target: T4, recombinant human PD-L1 fusion protein; experiment: competition ELISA on coated recombinant human PD-L1 fusion protein, PD1-Fc-Biotin as competitor, streptavidin-HRP
Description: The recombinant human PD-L1 fusion protein of 0.5 μg/mL is stored at 4° C. overnight in enveloping buffer. Remove the solution in wells the next day and wash with PBST for twice. Then add 1% BSA, seal at 37° C. for 1 hour, then wash with PBST for twice. The antibody is diluted 2.5 folds starting from 10 μg/mL for 8 concentration gradients, mixed with same volume of 1 μg/mL PD1-Fc-Biotin, incubated at 25° C. for 1 hour, and washed with PBST for one time. Incubate with goat streptavidin-HRP at ratio of 1:10000 for 1 hour at 37 C, and wash with PBST for three times. Add TMB for 15 min coloration, stop the reaction with 0.5M H₂SO₄ and read out the absorbance at 450 nm.

[8] = molecular target: T5, recombinant human PD-L1 expressed on the surface of CHO cells (human, UniProt Q9NZQ7 19-290); experiment: cell ELISA on CHO cells expressing human PD-L1, anti-human-Eu fluorescence
T5 construct: whole, on cells; also called CHO cells transfected by PD-L1; CHO cells with PD-L1 expressed on the surface
T5 sequence (Q9NZQ7 19-290): as the sequence (Q9NZQ7 19-290) above
Description: A Chinese hamster ovary (CHO) cell line expressing recombinant human PD-L1 on cell surface is constructed and its binding specificity to humanized antibody anti-PD-L1-1 is determined by ELISA assay. The cells are overlaid on PD-L1 the day before the test, and 1/200 cells are filled with T75 bottles on each well. Then add 1% BSA and seal at 37° C. for 1 hour. The antibody is diluted three folds starting from 5 μg/mL for 8 concentration gradients, incubated at 25° C. for 1 hour, and washed with PBST for one time. The volume of 50 ng/mL anti-human-Eu added to each well is 100 μL, with reaction time of 0.5 hours at 25° C., and washing with PBS for one time. Add fluorescence enhancement liquid and read values at exciting light 337 nm/emitted light 620 nm.

[9] = molecular target: T4, recombinant human PD-L1 fusion protein; experiment: ELISA, recombinant human PD-L1 fusion protein coated, antibody after 1 day in monkey serum at 37 °C, goat anti-human FAB-HRP, OD450
Description: as §1

[10] = molecular target: T4, recombinant human PD-L1 fusion protein; experiment: ELISA, recombinant human PD-L1 fusion protein coated, antibody after 0 days in monkey serum at 37 °C, goat anti-human FAB-HRP, OD450
Description: as §1

[11] = molecular target: T4, recombinant human PD-L1 fusion protein; experiment: ELISA on coated recombinant human PD-L1 fusion protein, goat anti-human FAB-HRP
Description: The recombinant human PD-L1 fusion protein of 0.5 μg/mL is stored at 4° C. overnight in enveloping buffer. Remove the solution in wells the next day and wash with PBST for twice. Then add 1% BSA and seal at 37° C. for 1 hour. Wash with PBST for twice. The antibody is diluted three folds starting from 5 μg/mL for 8 concentration gradients, incubated at 25° C. for 1 hour, and washed with PBST for three time. Dilute with goat anti-human FAB-HRP at ratio of 1:10000, incubate for 1 hour at 37 C, and wash with PBST for three times. Add TMB for 15 min coloration, stop the reaction with 0.5M H₂SO₄ and read out the absorbance at 450 nm.

IC50 [1]: 0.638 µg/mL | IC50 (hPD-L1-Fc [2]): 860 pM | EC50 [3]: 0.0303 µg/mL | EC50 (hPD-L1-Fc [4]): 0.00167 µg/mL
B1: mouse anti-PD-L1 (antibody, V domains shown)
VH: KVQLQQSGAELVKPGASVKLSCKASGYTFTKYIIHWIKQRSGQGLEWIGWFYPGSGNIRYNEKIKGKATLTADKSSSTVYMELSGLTSEDSAVYFCARHGELGGGYFFDYWGQGTTLTVSS
VL: QIVLSQSPTILSASPGEKVTMTCRASSSVSNIHWYQQKTGSSPKPWIYATSNLASGAPVRFSGSGSGTSYSLTISRVEAEDAATYYCQQWSSNPLTFGPGTKLELKR
notes: also called mouse PD-L1 antibody; mouse anti-PD-L1 monoclonal antibody

binding result (B7-1): no binding (tested: 0.5 µg/mL antibody) | EC50 (read off the curve) [5]: ~0.04 µg/mL | EC50 (read off the curve) [6]: ~0.04 µg/mL | IC50 [7]: 0.0432 µg/mL | EC50 [8]: 0.0935 µg/mL | EC50 (read off the curve) [9]: ~0.04 µg/mL | EC50 (read off the curve) [10]: ~0.04 µg/mL | EC50 [11]: 0.0195 µg/mL
B2: humanized antibody anti-PD-L1-1 (antibody, V domains shown)
VH: EVQLVQSGAEVKKPGASVKVSCKASGYTFTKYIIHWVRQAPGQGLEWMGWFYPGSGNIRYNEKIKGRVTMTRDTSTSTVYMELSSLRSEDTAVYYCARHGELGGGYFFDYWGQGTTVTVSS
VL: DIQLTQSPSFLSASVGDRVTITCRASSSVSNIHWYQQKPGKAPKPWIYATSNLASGVPSRFSGSGSGTEFTLTISSLQPEDFATYYCQQWSSNPLTFGQGTKLEIKR
notes: Expressed in CHO-KSM4 cells; also called humanized PD-L1 antibody
